Data as given in patent publication US20240398920A1 (CYTOMX THERAPEUTICS, published 2024).
Like-named read-outs stand apart in the source and are kept apart here.

What was measured:
Assay in all cases: cell-based or functional assay
[1] = target: T1, human herpes virus entry mediator (HVEM) (human, UniProt Q92956 39-283)
T1 sequence (looked up): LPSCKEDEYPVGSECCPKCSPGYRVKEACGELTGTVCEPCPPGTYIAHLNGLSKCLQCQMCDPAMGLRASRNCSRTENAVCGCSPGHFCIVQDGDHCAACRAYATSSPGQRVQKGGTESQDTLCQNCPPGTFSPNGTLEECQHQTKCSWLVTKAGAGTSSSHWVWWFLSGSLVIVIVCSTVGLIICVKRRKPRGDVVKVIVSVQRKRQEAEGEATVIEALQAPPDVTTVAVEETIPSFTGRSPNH

[2] = target: T1, human herpes virus entry mediator (HVEM); remark: listed apart in the source
[3] = target: T2, human lymphotoxin beta receptor (LTbR) (human, UniProt P36941 31-435)
T2 sequence (P36941 31-435): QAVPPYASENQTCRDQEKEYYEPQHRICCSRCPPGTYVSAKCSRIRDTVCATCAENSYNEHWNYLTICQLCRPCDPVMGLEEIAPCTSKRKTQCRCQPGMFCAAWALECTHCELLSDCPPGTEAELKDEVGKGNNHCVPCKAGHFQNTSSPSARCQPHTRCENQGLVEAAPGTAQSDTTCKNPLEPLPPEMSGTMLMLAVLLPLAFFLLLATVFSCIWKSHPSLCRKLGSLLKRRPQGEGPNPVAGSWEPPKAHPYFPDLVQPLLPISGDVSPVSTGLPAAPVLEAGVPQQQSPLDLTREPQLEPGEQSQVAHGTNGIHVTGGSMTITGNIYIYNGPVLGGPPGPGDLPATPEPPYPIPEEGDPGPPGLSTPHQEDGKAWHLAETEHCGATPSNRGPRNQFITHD

[4] = target: T1, human herpes virus entry mediator (HVEM); remark: listed apart in the source
[5] = target: T2, human lymphotoxin beta receptor (LTbR); remark: listed apart in the source
[6] = target: T1, human herpes virus entry mediator (HVEM); remark: listed apart in the source
[7] = target: T1, human herpes virus entry mediator (HVEM); remark: listed apart in the source
[8] = target: T1, human herpes virus entry mediator (HVEM); remark: listed apart in the source
[9] = target: T2, human lymphotoxin beta receptor (LTbR); remark: listed apart in the source

B1: ProC_mLm16_1490_LIGHT-10GS-Strep (ProC1192) (other)
chain: QGQSGSRHPCRHDPHIICYKFGGGSSGGSISSGLLSGRSDNIGGSQERRSHEVNPAAHLTGANSSLTGSGGPLLWETQLGLAFLRGLSYHDGALVVTKAGYYYIYSKVQLGGVGCPLGLASTITHGLYKRTPRYPEELELLVSQQSPCGRATSSSRVWWDSSFLGGVVHLEAGEEVVVRVLDERLVRLRDGTRSYFGAFMVSGGGSGGGSGSAWSHPQFEK
masking efficiency, HVEM Reporter Assay (EC50 against control ProC1188 or protease-activated ProC1192) [1]: > 20 fold
EC50 [nM]: HVEM Reporter Assay [2]: 25.6 nM
EC50 [pM]: Lymphotoxin beta receptor Reporter Assay [3]: 31.3 pM

B2: ProC1192 + uPa (ligand, not shown: small tags and cut ends)
chain: GGSQERRSHEVNPAAHLTGANSSLTGSGGPLLWETQLGLAFLRGLSYHDGALVVTKAGYYYIYSKVQLGGVGCPLGLASTITHGLYKRTPRYPEELELLVSQQSPCGRATSSSRVWWDSSFLGGVVHLEAGEEVVVRVLDERLVRLRDGTRSYFGAFMVSGGGSGGGSGSAWSHPQFEK
EC50 [nM]: HVEM Reporter Assay [4]: 0.999 nM
EC50 [pM]: Lymphotoxin beta receptor Reporter Assay [5]: 2 pM

B3: ProC_LIGHT-10GS-His (ProC1189) (ligand)
chain: QERRSHEVNPAAHLTGANSSLTGSGGPLLWETQLGLAFLRGLSYHDGALVVTKAGYYYIYSKVQLGGVGCPLGLASTITHGLYKRTPRYPEELELLVSQQSPCGRATSSSRVWWDSSFLGGVVHLEAGEEVVVRVLDERLVRLRDGTRSYFGAFMVSGGGSGGGSGHHHHHH
EC50 [nM]: HVEM Reporter Assay [6]: 0.86 nM
EC50 [nM]: HVEM Reporter Assay [7]: 0.58 nM

B4: LIGHT-10GS-Strep (ProC1188) (ligand)
chain: QERRSHEVNPAAHLTGANSSLTGSGGPLLWETQLGLAFLRGLSYHDGALVVTKAGYYYIYSKVQLGGVGCPLGLASTITHGLYKRTPRYPEELELLVSQQSPCGRATSSSRVWWDSSFLGGVVHLEAGEEVVVRVLDERLVRLRDGTRSYFGAFMVSGGGSGGGSGSAWSHPQFEK
EC50 [nM]: HVEM Reporter Assay [8]: 0.843 nM
EC50 [pM]: Lymphotoxin beta receptor Reporter Assay [9]: 5.3 pM
EC50 [nM]: HVEM Reporter Assay [2]: 1 nM
EC50 [pM]: Lymphotoxin beta receptor Reporter Assay [3]: 5.3 pM
